Laboratory results published in publication PMC5986199.

Target: α-NAC subunit of C. elegans NAC (C. elegans)
Test: cross-linking; BS3 (d0/d4) at 20- or 50-fold molar excess, 20 uM NAC alone or + 20 uM substrate, 10 mM sodium phosphate pH 7.0, room temperature 1 h; SDS-PAGE, in-gel tryptic digest, LC-MS/MS

- stoichiometry N: 1
B1: β-NAC subunit of C. elegans NAC (natural protein)
chain: MDSKAIAERIKKLQAQQEHVRIGGKGTPRRKKKVIHKTAAADDKKLQSNLKKLSVTNIPGIEEVNMIKDDGTVIHFNNPKVQTSVPANTFSVTGSADNKQITEMLPGILNQLGPESLTHLKKLANNVTKLGPDGKGEDEDVPELVGDFDAASKNETKADEQ
